Experimental data from patent publication US20110171126A1.

Key:
[1] = molecular target: HLA-DR as expressed by cancer cell lines (human); assay: flow cytometry, surface, FSCCL cells
[2] = molecular target: HLA-DR as expressed by cancer cell lines (human); assay: flow cytometry, permeabilized (cytoplasmic), BxPC-3 cells
[3] = molecular target: HLA-DR as expressed by cancer cell lines (human); assay: flow cytometry, permeabilized (cytoplasmic), TU118 cells + IFNγ
[4] = molecular target: HLA-DR as expressed by cancer cell lines (human); assay: flow cytometry, surface, BxPC-3 cells + IFNγ
[5] = molecular target: HLA-DR as expressed by cancer cell lines (human); assay: flow cytometry, permeabilized (cytoplasmic), Capan cells + IFNγ
[6] = molecular target: HLA-DR as expressed by cancer cell lines (human); assay: flow cytometry, surface, CAG cells + IFNγ
[7] = molecular target: HLA-DR as expressed by cancer cell lines (human); assay: flow cytometry, surface, Aspc-1 cells
[8] = molecular target: HLA-DR as expressed by cancer cell lines (human); assay: flow cytometry, surface, Panc-1 cells + IFNγ
[9] = molecular target: HLA-DR as expressed by cancer cell lines (human); assay: flow cytometry, permeabilized (cytoplasmic), KMS11 cells + IFNγ
[10] = molecular target: HLA-DR as expressed by cancer cell lines (human); assay: flow cytometry, permeabilized (cytoplasmic), FSCCL cells
[11] = molecular target: HLA-DR as expressed by cancer cell lines (human); assay: flow cytometry, permeabilized (cytoplasmic), HT29 cells + IFNγ
[12] = molecular target: HLA-DR as expressed by cancer cell lines (human); assay: flow cytometry, permeabilized (cytoplasmic), U87 cells
[13] = molecular target: HLA-DR as expressed by cancer cell lines (human); assay: flow cytometry, permeabilized (cytoplasmic), RL cells + IFNγ
[14] = molecular target: HLA-DR as expressed by cancer cell lines (human); assay: flow cytometry, permeabilized (cytoplasmic), Aspc-1 cells + IFNγ
[15] = molecular target: HLA-DR as expressed by cancer cell lines (human); assay: flow cytometry, surface, TU118 cells
[16] = molecular target: HLA-DR as expressed by cancer cell lines (human); assay: flow cytometry, surface, FSCCL cells + IFNγ
[17] = molecular target: HLA-DR as expressed by cancer cell lines (human); assay: flow cytometry, surface, KMS11 cells + IFNγ
[18] = molecular target: HLA-DR as expressed by cancer cell lines (human); assay: flow cytometry, permeabilized (cytoplasmic), CAG cells
[19] = molecular target: HLA-DR as expressed by cancer cell lines (human); assay: flow cytometry, permeabilized (cytoplasmic), Moser cells + IFNγ
[20] = molecular target: HLA-DR as expressed by cancer cell lines (human); assay: flow cytometry, permeabilized (cytoplasmic), U118 cells
[21] = molecular target: HLA-DR as expressed by cancer cell lines (human); assay: flow cytometry, surface, LS174T cells + IFNγ
[22] = molecular target: HLA-DR as expressed by cancer cell lines (human); assay: flow cytometry, permeabilized (cytoplasmic), BxPC-3 cells + IFNγ
[23] = molecular target: HLA-DR as expressed by cancer cell lines (human); assay: flow cytometry, surface, U118 cells
[24] = molecular target: HLA-DR as expressed by cancer cell lines (human); assay: flow cytometry, permeabilized (cytoplasmic), HT29 cells
[25] = molecular target: HLA-DR as expressed by cancer cell lines (human); assay: flow cytometry, permeabilized (cytoplasmic), Lovo cells + IFNγ
[26] = molecular target: HLA-DR as expressed by cancer cell lines (human); assay: flow cytometry, surface, HT29 cells + IFNγ
[27] = molecular target: HLA-DR as expressed by cancer cell lines (human); assay: flow cytometry, surface, U118 cells + IFNγ
[28] = molecular target: HLA-DR as expressed by cancer cell lines (human); assay: flow cytometry, surface, Lovo cells
[29] = molecular target: HLA-DR as expressed by cancer cell lines (human); assay: flow cytometry, surface, HT29 cells
[30] = molecular target: HLA-DR as expressed by cancer cell lines (human); assay: flow cytometry, permeabilized (cytoplasmic), TU118 cells
[31] = molecular target: HLA-DR as expressed by cancer cell lines (human); assay: flow cytometry, surface, BxPC-3 cells
[32] = molecular target: HLA-DR as expressed by cancer cell lines (human); assay: cell-based or functional assay
[33] = molecular target: HLA-DR as expressed by cancer cell lines (human); assay: flow cytometry, permeabilized (cytoplasmic), U118 cells + IFNγ
[34] = molecular target: HLA-DR as expressed by cancer cell lines (human); assay: flow cytometry, permeabilized (cytoplasmic), RL cells
[35] = molecular target: HLA-DR as expressed by cancer cell lines (human); assay: flow cytometry, surface, Moser cells + IFNγ
[36] = molecular target: HLA-DR as expressed by cancer cell lines (human); assay: flow cytometry, permeabilized (cytoplasmic), U87 cells + IFNγ
[37] = molecular target: HLA-DR as expressed by cancer cell lines (human); assay: flow cytometry, permeabilized (cytoplasmic), FSCCL cells + IFNγ
[38] = molecular target: HLA-DR as expressed by cancer cell lines (human); assay: flow cytometry, surface, TU118 cells + IFNγ
[39] = molecular target: HLA-DR as expressed by cancer cell lines (human); assay: flow cytometry, permeabilized (cytoplasmic), LS174T cells
[40] = molecular target: HLA-DR as expressed by cancer cell lines (human); assay: flow cytometry, surface, CAG cells
[41] = molecular target: HLA-DR as expressed by cancer cell lines (human); assay: flow cytometry, surface, U87 cells + IFNγ
[42] = molecular target: HLA-DR as expressed by cancer cell lines (human); assay: flow cytometry, surface, LS174T cells
[43] = molecular target: HLA-DR as expressed by cancer cell lines (human); assay: flow cytometry, permeabilized (cytoplasmic), LS174T cells + IFNγ
[44] = molecular target: HLA-DR as expressed by cancer cell lines (human); assay: flow cytometry, surface, U87 cells
[45] = molecular target: HLA-DR as expressed by cancer cell lines (human); assay: flow cytometry, permeabilized (cytoplasmic), CAG cells + IFNγ
[46] = molecular target: HLA-DR as expressed by cancer cell lines (human); assay: flow cytometry, permeabilized (cytoplasmic), Capan-1 cells
[47] = molecular target: HLA-DR as expressed by cancer cell lines (human); assay: flow cytometry, surface, RL cells
[48] = molecular target: HLA-DR as expressed by cancer cell lines (human); assay: flow cytometry, surface, Capan cells + IFNγ
[49] = molecular target: HLA-DR as expressed by cancer cell lines (human); assay: flow cytometry, surface, Moser cells
[50] = molecular target: HLA-DR as expressed by cancer cell lines (human); assay: flow cytometry, surface, Panc-1 cells
[51] = molecular target: HLA-DR as expressed by cancer cell lines (human); assay: flow cytometry, permeabilized (cytoplasmic), Aspc-1 cells
[52] = molecular target: HLA-DR as expressed by cancer cell lines (human); assay: flow cytometry, surface, RL cells + IFNγ
[53] = molecular target: HLA-DR as expressed by cancer cell lines (human); assay: flow cytometry, surface, Capan-1 cells
[54] = molecular target: HLA-DR as expressed by cancer cell lines (human); assay: flow cytometry, permeabilized (cytoplasmic), Panc-1 cells
[55] = molecular target: HLA-DR as expressed by cancer cell lines (human); assay: flow cytometry, surface, Aspc-1 cells + IFNγ
[56] = molecular target: HLA-DR as expressed by cancer cell lines (human); assay: flow cytometry, permeabilized (cytoplasmic), Lovo cells
[57] = molecular target: HLA-DR as expressed by cancer cell lines (human); assay: flow cytometry, surface, KMS11 cells
[58] = molecular target: HLA-DR as expressed by cancer cell lines (human); assay: flow cytometry, permeabilized (cytoplasmic), Panc-1 cells + IFNγ
[59] = molecular target: HLA-DR as expressed by cancer cell lines (human); assay: flow cytometry, permeabilized (cytoplasmic), Moser cells
[60] = molecular target: HLA-DR as expressed by cancer cell lines (human); assay: flow cytometry, permeabilized (cytoplasmic), KMS11 cells
[61] = molecular target: HLA-DR as expressed by cancer cell lines (human); assay: flow cytometry, surface, Lovo cells + IFNγ

- fluorescence intensity (flow cytometry) [1]: 1090
- fluorescence intensity (flow cytometry) [2]: 14.2
- fluorescence intensity (flow cytometry) [3]: 215
- fluorescence intensity (flow cytometry) [4]: 43.8
- fluorescence intensity (flow cytometry) [5]: 253
- fluorescence intensity (flow cytometry) [6]: 1810
- fluorescence intensity (flow cytometry) [7]: 3.2
- fluorescence intensity (flow cytometry) [8]: 4.7
- fluorescence intensity (flow cytometry) [9]: 927
- fluorescence intensity (flow cytometry) [10]: 1470
- fluorescence intensity (flow cytometry) [11]: 638
- fluorescence intensity (flow cytometry) [12]: 102
- fluorescence intensity (flow cytometry) [13]: 1180
- fluorescence intensity (flow cytometry) [14]: 73.6
- fluorescence intensity (flow cytometry) [15]: 5.08
- fluorescence intensity (flow cytometry) [16]: 1610
- fluorescence intensity (flow cytometry) [17]: 665
- fluorescence intensity (flow cytometry) [18]: 2320
- fluorescence intensity (flow cytometry) [19]: 40.5
- fluorescence intensity (flow cytometry) [20]: 24.6
- fluorescence intensity (flow cytometry) [21]: 4.7
- fluorescence intensity (flow cytometry) [22]: 130
- fluorescence intensity (flow cytometry) [23]: 6.1
- fluorescence intensity (flow cytometry) [24]: 9.1
- fluorescence intensity (flow cytometry) [25]: 989
- fluorescence intensity (flow cytometry) [26]: 298
- fluorescence intensity (flow cytometry) [27]: 197
- fluorescence intensity (flow cytometry) [28]: 7.3
- fluorescence intensity (flow cytometry) [29]: 3.3
- fluorescence intensity (flow cytometry) [30]: 23.6
- fluorescence intensity (flow cytometry) [31]: 2.3
- fluorescence intensity (flow cytometry) [33]: 352
- fluorescence intensity (flow cytometry) [34]: 1060
- fluorescence intensity (flow cytometry) [35]: 8.5
- fluorescence intensity (flow cytometry) [36]: 429
- fluorescence intensity (flow cytometry) [37]: 2520
- fluorescence intensity (flow cytometry) [38]: 93.5
- fluorescence intensity (flow cytometry) [39]: 23.4
- fluorescence intensity (flow cytometry) [40]: 1930
- fluorescence intensity (flow cytometry) [41]: 172
- fluorescence intensity (flow cytometry) [42]: 5.3
- fluorescence intensity (flow cytometry) [43]: 42.3
- fluorescence intensity (flow cytometry) [44]: 41.9
- fluorescence intensity (flow cytometry) [45]: 2420
- fluorescence intensity (flow cytometry) [46]: 11.6
- fluorescence intensity (flow cytometry) [47]: 750
- fluorescence intensity (flow cytometry) [48]: 66.2
- fluorescence intensity (flow cytometry) [49]: 4
- fluorescence intensity (flow cytometry) [50]: 4.3
- fluorescence intensity (flow cytometry) [51]: 11
- fluorescence intensity (flow cytometry) [52]: 862
- fluorescence intensity (flow cytometry) [53]: 5.5
- fluorescence intensity (flow cytometry) [54]: 22.7
- fluorescence intensity (flow cytometry) [55]: 15.2
- fluorescence intensity (flow cytometry) [56]: 32.5
- fluorescence intensity (flow cytometry) [57]: 677
- fluorescence intensity (flow cytometry) [58]: 64.1
- fluorescence intensity (flow cytometry) [59]: 18.2
- fluorescence intensity (flow cytometry) [60]: 879
- fluorescence intensity (flow cytometry) [61]: 276
B1: hL243γ4P (humanized anti-HLA-DR antibody) (antibody, from a related filing, V domains shown)
VH: QVQLQQSGSELKKPGASVKVSCKASGFTFTNYGMNWVKQAPGQGLKWMGWINTYTREPTYADDFKGRFAFSLDTSVSTAYLQISSLKADDTAVYFCARDITAVVPTGFDYWGQGSLVTVSS
VL: DIQLTQSPSSLSASVGDRVTITCRASENIYSNLAWYRQKPGKAPKLLVFAASNLADGVPSRFSGSGSGTDYTFTISSLQPEDIATYYCQHFWTTPWAFGGGTKLQIKR
- increased killing in vitro after IFN-γ exposure, WSU-FSCCL NHL cells [32]: 58%
